Results on 15 molecules are retold here after patent US20250049896A1 (Regeneron, published 2025).

The target in test [1] is T1, Hmm-hTFRC (REGN2431), monomeric human transferrin receptor ectodomain with N-terminal hexahistidine-myc-myc … (human, UniProt P02786 89-760).
T1 construct: also called hmm.hTfR(C89-F763); His-myc-myc-hTFRC ecto
Nature of the test: blocking ELISA, supernatant; Hmm-hTFRC binding to immobilized human holo-Tf. The essentials:
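Plates were coated with anti-hTf goat pAb at 2 µg/mL overnight at 4 °C, then loaded with human holo-Tf at 1 µg/mL for 2 h at room temperature. Bound receptor was detected with TMB and absorbance read at 450 nm.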

Test [2] addresses T2, hmm.hTfRC (REGN2431), human transferrin receptor extracellular domain with hexahistidine-myc-myc tag (human, UniProt P02786 89-760).
T2 construct: Monomeric recombinant protein, 79210 g/mol; also called hTFR-mmh; His-myc-myc-hTFRC ecto
Nature of the test: SPR (Biacore), mAb captured on anti-human Fc, 100 nM hTFR-mmh, 25 C. The method, then: (§1) Biacore binding kinetics assays were conducted for the interaction of 32 anti-human TfR IgG1 monoclonal antibodies from CHO supernatants with TfR reagents at 25° C.
(§2) Equilibrium dissociation constants (KD) for the interaction of anti-TfR monoclonal antibodies with human and fascicularis monkey TfR ecto domain recombinant proteins were determined using a real-time surface plasmon resonance (SPR) based Biacore S200 biosensor. All binding studies were performed in 10 mM HEPES, 150 mM NaCl, 3 mM EDTA, and 0.05% v/v surfactant Tween-20, pH 7.4 (HBS-EP) running buffer at […]. The Biacore CM5 sensor surface was first derivatized by amine coupling with a monoclonal mouse anti-human Fc antibody (REGN2567) followed by a step to capture anti-TfR monoclonal antibodies in CHO conditioned media. […] The dissociation of TfR bound to anti-TfR monoclonal antibodies was monitored for 3 minutes in HBS-EP running buffer. At the end of each cycle, the anti-TfR monoclonal antibodies capture surface was regenerated using a 12-sec injection of 20 mM H₃PO₄. The association rate (ka) and dissociation rate (kd) were determined by fitting the real-time binding sensorgrams to a 1:1 binding model with mass transport limitation using Scrubber 2.0 c software. The dissociation equilibrium constant (KD) and dissociative half-life (t½) were calculated from the kinetic rate constants as: […]

Test [3] has as its target T3, mf TFRC ecto-mmh (REGN2054), monomeric monkey (cyno) Tfrc ectodomain with C-terminal myc-myc-hexahistidine tag (monkey (cyno), Macaca fascicularis, UniProt H9EXL1 89-760).
T3 construct: range 89-760; also called mfTfR-mmh; mfTFR-mmh
As to the kind of experiment: SPR (Biacore), mAb captured on anti-human Fc, 100 nM mfTfR-mmh, 25 C. The method, then:
as §1, §2
In general terms: In SPR one partner is held on a chip, and binding of the other changes the refractive index at the surface.

For test [4], the target named is T3, mf TFRC ecto-mmh (REGN2054), monomeric …. Nature of the test: SPR (Biacore), mAb from CHO supernatant captured on anti-human Fc, 100 nM mfTfR-mmh injected, 25 C. The method, then: as §1, §2

T3 sequence (chain, as listed by the source): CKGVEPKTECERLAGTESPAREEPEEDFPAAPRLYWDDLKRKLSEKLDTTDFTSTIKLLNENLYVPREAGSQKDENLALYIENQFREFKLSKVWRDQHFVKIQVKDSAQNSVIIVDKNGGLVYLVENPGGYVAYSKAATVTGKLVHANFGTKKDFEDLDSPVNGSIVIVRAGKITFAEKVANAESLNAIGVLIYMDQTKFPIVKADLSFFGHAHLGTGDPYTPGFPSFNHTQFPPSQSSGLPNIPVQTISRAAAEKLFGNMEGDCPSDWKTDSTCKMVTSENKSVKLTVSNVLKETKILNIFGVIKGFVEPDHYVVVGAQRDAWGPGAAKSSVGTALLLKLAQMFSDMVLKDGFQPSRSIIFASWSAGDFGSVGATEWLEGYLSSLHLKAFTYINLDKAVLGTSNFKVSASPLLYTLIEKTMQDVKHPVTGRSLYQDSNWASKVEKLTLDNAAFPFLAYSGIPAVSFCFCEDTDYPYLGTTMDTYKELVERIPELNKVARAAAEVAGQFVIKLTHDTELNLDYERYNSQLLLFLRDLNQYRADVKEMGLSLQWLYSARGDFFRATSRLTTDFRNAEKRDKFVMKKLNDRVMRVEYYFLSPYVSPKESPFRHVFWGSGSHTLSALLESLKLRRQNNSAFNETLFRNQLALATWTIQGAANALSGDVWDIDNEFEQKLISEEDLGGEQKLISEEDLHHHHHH
T1 sequence (P02786 other isoform, or with tags, fused parts or gaps): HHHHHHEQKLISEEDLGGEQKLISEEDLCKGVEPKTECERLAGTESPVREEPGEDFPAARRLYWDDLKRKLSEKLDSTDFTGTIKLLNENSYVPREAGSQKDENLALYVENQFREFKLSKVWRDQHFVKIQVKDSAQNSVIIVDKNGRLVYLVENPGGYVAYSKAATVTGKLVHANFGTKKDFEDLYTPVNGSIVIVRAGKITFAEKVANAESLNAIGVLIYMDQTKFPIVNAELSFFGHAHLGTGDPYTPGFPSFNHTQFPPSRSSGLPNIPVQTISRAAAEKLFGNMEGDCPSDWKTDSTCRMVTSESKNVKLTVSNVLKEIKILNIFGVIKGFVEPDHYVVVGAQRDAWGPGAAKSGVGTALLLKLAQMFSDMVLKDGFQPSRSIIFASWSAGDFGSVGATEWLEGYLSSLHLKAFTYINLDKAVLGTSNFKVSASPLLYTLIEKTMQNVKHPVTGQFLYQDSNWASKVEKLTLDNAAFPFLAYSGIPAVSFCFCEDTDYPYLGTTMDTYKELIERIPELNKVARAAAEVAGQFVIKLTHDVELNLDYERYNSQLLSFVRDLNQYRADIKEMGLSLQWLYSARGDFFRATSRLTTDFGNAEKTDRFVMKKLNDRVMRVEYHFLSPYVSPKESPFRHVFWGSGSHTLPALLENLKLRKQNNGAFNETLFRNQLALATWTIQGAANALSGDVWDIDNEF
T2 sequence (P02786 other isoform, or with tags, fused parts or gaps): as above

B1: 69348 scFv (VH-VK) (scFv)
chain: QVQLVESGGGVVQPGRSLRLSCAASGFTFTTYGMHWVRQAPGKGLEWVAVIWYDGSNKYYGDSVKGRFTISRDNSKNTLYLQMNSLRVDDTAVYYCTRTHGYTRSSDGFDYWGQGTLVTVSSDIQMTQSPSSLSASVGDRVTITCRASQSIRNVLGWFQQKPGKAPQRLIYAASSLQSGVPSRFSGSGSGTEFTLTISSLQPEDFATYYCLQHNFYPLTFGGGTKVEIK
On to B1, for which, in test [1], the “% Blocking” value worked out at 0%.

B2: 69331 scFv (VH-VK) (scFv)
chain: QVQLVESGGGVVQPGRSLRLSCIASGFTFSVYGIHWVRQAPGKGLEWMAVISHDGNIKHYADSVKGRFTISRDNSKNTLYLQINSLRTEDTAVYYCAKDTWNSLDTFDIWGQGTMVTVSSDIQLTQSPSSLSASVGDRVTITCWASQGISSYLAWYQQKPGKAPKLLIYAASTLQSGVPSRFSGSGSGTEFTLTISSLQPEDFATYYCQQLNSYPLTFGGGTKVEIK
Take B2: in test [1], the “% Blocking” value is 7%.

B3: 69348 scFv (VK-VH) (scFv)
scFv: DIQMTQSPSSLSASVGDRVTITCRASQSIRNVLGWFQQKPGKAPQRLIYAASSLQSGVPSRFSGSGSGTEFTLTISSLQPEDFATYYCLQHNFYPLTFGGGTKVEIKGGGGSGGGGSGGGGSQVQLVESGGGVVQPGRSLRLSCAASGFTFTTYGMHWVRQAPGKGLEWVAVIWYDGSNKYYGDSVKGRFTISRDNSKNTLYLQMNSLRVDDTAVYYCTRTHGYTRSSDGFDYWGQGTLVTVSS
notes: CHO supernatant; Vk-3xG4S-Vh
Consider B3, for which, in test [1], the “% Blocking” value was determined as 16%.

B4: 69340 scFv (VH-VK) (scFv)
chain: EVQLVESGGGLVQPGRSLRLSCAASGFTFDDKAMHWVRQVPGKGLEWISGISWNSGTIGYADSVKGRFIISRDNAKNSLYLQMNSLRAEDTALYYCAKDGDTSGWYWYGLDVWGQGTTVTVSSEIVLTQSPATLSLSPGERATLSCRASQSVSSYLAWYQQKPGQAPRLLIHDVSNRATGIPARFSGSGSGTDFTLTISSLEPEDFVVYYCQQRSDWPITFGQGTRLEIK
For the molecule B4, the “% Blocking” value in test [1] came out at 6%.

B5: 69332 Fab (Fab, V domains shown)
VH: QVTLRESGPALVKPSQTLTLTCTFSGFSLNTYGMFVSWIRQPPGKALEWLAHIHWDDDKYYSTSLKTRLTISKDTSKNQVVLTMTNMDPVDTATYYCARGHNNLNYIIHWGQGTLVTVSS
VL: AIQMTQSPSSLSASVGDRVTITCRASQGIRNDLGWYQQKPGKAPKLLIYAASTLQSGVPSRFSGSGSGTDFTLTISSLQPEDFATYYCLQDYNYPFTFGPGTKVDIKR
notes: CHO supernatant
For the molecule B5, in test [1], the “% Blocking” value was determined as 18%.

B6: 69331 scFv (VK-VH) (scFv)
scFv: DIQLTQSPSSLSASVGDRVTITCWASQGISSYLAWYQQKPGKAPKLLIYAASTLQSGVPSRFSGSGSGTEFTLTISSLQPEDFATYYCQQLNSYPLTFGGGTKVEIKGGGGSGGGGSGGGGSQVQLVESGGGVVQPGRSLRLSCIASGFTFSVYGIHWVRQAPGKGLEWMAVISHDGNIKHYADSVKGRFTISRDNSKNTLYLQINSLRTEDTAVYYCAKDTWNSLDTFDIWGQGTMVTVSS
notes: CHO supernatant; Vk-3xG4S-Vh
In the case of B6, the “% Blocking” value in test [1] was found to be 13%.

B7: 69348 Fab (Fab, V domains shown)
VH: QVQLVESGGGVVQPGRSLRLSCAASGFTFTTYGMHWVRQAPGKGLEWVAVIWYDGSNKYYGDSVKGRFTISRDNSKNTLYLQMNSLRVDDTAVYYCTRTHGYTRSSDGFDYWGQGTLVTVSS
VL: DIQMTQSPSSLSASVGDRVTITCRASQSIRNVLGWFQQKPGKAPQRLIYAASSLQSGVPSRFSGSGSGTEFTLTISSLQPEDFATYYCLQHNFYPLTFGGGTKVEIKR
notes: CHO supernatant
For the molecule B7, the “% Blocking” value in test [1] stood at 40%.

B8: 69332 scFv (VK-VH) (scFv)
scFv: AIQMTQSPSSLSASVGDRVTITCRASQGIRNDLGWYQQKPGKAPKLLIYAASTLQSGVPSRFSGSGSGTDFTLTISSLQPEDFATYYCLQDYNYPFTFGPGTKVDIKGGGGSGGGGSGGGGSQVTLRESGPALVKPSQTLTLTCTFSGFSLNTYGMFVSWIRQPPGKALEWLAHIHWDDDKYYSTSLKTRLTISKDTSKNQVVLTMTNMDPVDTATYYCARGHNNLNYIIHWGQGTLVTVSS
notes: CHO supernatant; Vk-3xG4S-Vh
For B8, the “% Blocking” value in test [1] stood at 22%.

B9: 69326 (antibody, human IgG1, kappa, V domains shown)
VH: EVQLVESGGGLVQPGGSLRLSCAVSGFIFSSYEMNWVRQAPGKGLEWVSYISSSGSTIFYADSVKGRFTISRDNAKNSLYLQMNSLRAEDTAVYYCVSGVVLFDVWGQGTMVTVSS
VL: EIVMTQSPATLSVSPGERATLSCRASQSVSSNFAWYQQKPGQAPRLLIYSASSRATGIPVRFSGSGSGTEFTLTISSLQSEDFAVYYCQQYNIWPRTFGQGTKVEIKR
notes: Tested as bivalent human IgG1 from CHO primary supernatant
Regarding B9, in test [2], the “100 nM Ag Bound (RU)” value turned out to be 680 RU; the Kd – broadly, the free concentration of one partner at which half of the binding sites on the other are occupied at equilibrium, for simple one-to-one binding – was 2.22 nM; the koff (usually a measure of how fast the partners let go of each other) amounted to 0.000256 s⁻¹; the kon (usually a measure of how fast the partners come together) is 115000 M⁻¹ s⁻¹. In test [2], the t½ (in general, the time in which the quantity being followed falls by half) is 45.1 min. Also, in test [3], the “100 nM Ag Bound (RU)” value is 9 RU. The binding result in test [4] is recorded as “no binding (tested: 100 nM)”.

B10: 69340 scFv (VK-VH) (scFv)
scFv: EIVLTQSPATLSLSPGERATLSCRASQSVSSYLAWYQQKPGQAPRLLIHDVSNRATGIPARFSGSGSGTDFTLTISSLEPEDFVVYYCQQRSDWPITFGQGTRLEIKGGGGSGGGGSGGGGSEVQLVESGGGLVQPGRSLRLSCAASGFTFDDKAMHWVRQVPGKGLEWISGISWNSGTIGYADSVKGRFIISRDNAKNSLYLQMNSLRAEDTALYYCAKDGDTSGWYWYGLDVWGQGTTVTVSS
notes: CHO supernatant; Vk-3xG4S-Vh
On to B10, for which, in test [1], the “% Blocking” value is 13%.

B11: 69340 Fab (Fab, V domains shown)
VH: EVQLVESGGGLVQPGRSLRLSCAASGFTFDDKAMHWVRQVPGKGLEWISGISWNSGTIGYADSVKGRFIISRDNAKNSLYLQMNSLRAEDTALYYCAKDGDTSGWYWYGLDVWGQGTTVTVSS
VL: EIVLTQSPATLSLSPGERATLSCRASQSVSSYLAWYQQKPGQAPRLLIHDVSNRATGIPARFSGSGSGTDFTLTISSLEPEDFVVYYCQQRSDWPITFGQGTRLEIKR
notes: CHO supernatant
Consider B11, for which, in test [1], the “% Blocking” value came out at 3%.

B12: 69332 scFv (VH-VK) (scFv)
chain: QVTLRESGPALVKPSQTLTLTCTFSGFSLNTYGMFVSWIRQPPGKALEWLAHIHWDDDKYYSTSLKTRLTISKDTSKNQVVLTMTNMDPVDTATYYCARGHNNLNYIIHWGQGTLVTVSSAIQMTQSPSSLSASVGDRVTITCRASQGIRNDLGWYQQKPGKAPKLLIYAASTLQSGVPSRFSGSGSGTDFTLTISSLQPEDFATYYCLQDYNYPFTFGPGTKVDIK
For the molecule B12, the “% Blocking” value in test [1] was determined as 6%.

B13: 69307 (antibody, human IgG1, kappa, V domains shown)
VH: EVQLVESGGGLVQPGGSLRLSCTASGFTFSNYWMTWVRQAPGKGLEWVANIKEDGSEKEYVDSVKGRFTISRDNAKNSLYLQMNSLRGEDTAVYYCARDGEQLVDYYYYYVMDVWGQGTTVTVSS
VL: DIQMTQSPSSVSASVGDRVTITCRASQGISSWLAWYQQKPGKAPKLLIYAASSLQSGVPSRFSGSGSGTDFTLTISSLQPEDFATYYCQKADSLPYAFGQGTKLEIKR
notes: as for B9
As for B13, in test [2], the “100 nM Ag Bound (RU)” value is 1280 RU, binding was put at a Kd of 0.226 nM, the koff was found to be 4.26e-05 s⁻¹ and the kon was found to be 190000 M⁻¹ s⁻¹. In addition, in test [2], the t½ was determined as 271 min. The “100 nM Ag Bound (RU)” value in test [3] came to 3 RU. For the same molecule, the binding result in test [4] was “no binding (tested: 100 nM)”.

B14: 12812B (antibody, human IgG1, kappa, V domains shown)
VH: QVQLVQSGAEVKKPGSSVRVSCKASRGTFSSYAISWVRQAPGQGLEWMGGIIPIFGTANYAQKFLARVTITADESTSTAYMELSSLRSEDTAVYYCAREKGWNYFDYWGQGTLVTVSS
VL: DIQMTQSPPSVSASVGDRVTITCRASQGISSWLAWYQQKPGKAPKLLIYAASSLQSGVPSRFSGSGSGTDFTLTISSLQPEDFATYYCQQANSFPRTFGQGTKVEIKR
notes: as for B9
Regarding B14, in test [2], the “100 nM Ag Bound (RU)” value amounted to 11 RU, the Kd is 3.02 nM, the koff was 0.00131 s⁻¹ and the kon stood at 433000 M⁻¹ s⁻¹. Moreover, the t½ in test [2] was 8.8 min. In test [3], the “100 nM Ag Bound (RU)” value came to 1 RU. The binding result in test [4] is recorded as “no binding (tested: 100 nM)”.

B15: 69329 (antibody, human IgG1, kappa, V domains shown)
VH: EVQLVESGGGLVQPGGSLRLSCAASGFTFSNYWMTWVRQAPGKGLEWVANIKEDGSEKDYVDSVKGRFTISRDNAKNSLYLQMNSLRGEDTAVYYCARDGEQLVDYYYYYVMDVWGQGTTVTVSS
VL: DIQMTQSPSSVSASVGDRVTITCRASQGISSWLAWYQQKPGKAPKLLIYAASSLQSGVPSRFSGSGSGTDFTLTISSLQPEDFATYYCQKANSFPYTFGQGTKLEIKR
notes: as for B9
On to B15, for which, in test [2], the “100 nM Ag Bound (RU)” value was 1100 RU; the affinity, expressed as Kd, was 0.97 nM; the koff was 0.000186 s⁻¹; the kon amounted to 192000 M⁻¹ s⁻¹. Also, the t½ in test [2] was found to be 62.2 min. Besides, the “100 nM Ag Bound (RU)” value in test [3] was 8 RU. For the same molecule, the binding result in test [4] is listed as “no binding (tested: 100 nM)”.
